# Laboratory results: US20140005119A1, “COMPOSITIONS AND METHODS FOR INHIBITING THE ACTIVITY OF P110a MUTANT PROTEINS” (Case Western Reserve University, priority 2012, published 2014)
# Where no end group is shown, it is not given here.
# B1: 6×His-tagged IRS1 middle fragment (AA 585-962) (other, UniProt P35568 585-962, looked up)
# chain: EGLEMHPLERRGGHHRPDSSTLHTDDGYMPMSPGVAPVPSGRKGSGDYMPMSPKSVSAPQQIINPIRRHPQRVDPNGYMMMSPSGGCSPDIGGGPSSSSSSSNAVPSGTSYGKLWTNGVGGHHSHVLPHPKPPVESSGGKLLPCTGDYMNMSPVGDSNTSSPSDCYYGPEDPQHKPVLSYYSLPRSFKHTQRPGEPEEGARHQHLRLSTSSGRLLYAATADDSSSSTSSDSLGGGYCGARLEPSLPHPHHQVLQPHLPRKVDTAAQTNSRLARPTRLSLGDPKASTLPRAREQQQQQQPLLHPPEPKSPGEYVNIEFGSDQSGYLSGPVAFHSSPSVRCPSQLQPAPREEETGTEEYMKMDLGPGRRAAWQESTGVEM
# notes: range 585-962; Expressed in E. coli BL21, purified on Ni-NTA beads; also called middle part of IRS1; middle fragment of IRS1; not shown: 6×His tag
# Tests used:
# [1] = target: T1, interaction between p110α E545K and IRS1 (Homo sapiens, UniProt P35568); experiment: Peptide competition assay in cell lysates (anti-FLAG immunoprecipitation, anti-IRS1 blot); format: binding; conditions: peptide added into cell lysates of p110α E545K 3×FLAG KI cells
# T1 construct: In KI DLD1 cells, IRS1 was co-immunoprecipitated with p110α E545K but not the WT p110α; endogenous in cells; host or cells: DLD1 p110α E545K 3×FLAG knock-in cells (rAAV gene targeting of the endogenous allele)
# T1 sequence (P35568 1-1242): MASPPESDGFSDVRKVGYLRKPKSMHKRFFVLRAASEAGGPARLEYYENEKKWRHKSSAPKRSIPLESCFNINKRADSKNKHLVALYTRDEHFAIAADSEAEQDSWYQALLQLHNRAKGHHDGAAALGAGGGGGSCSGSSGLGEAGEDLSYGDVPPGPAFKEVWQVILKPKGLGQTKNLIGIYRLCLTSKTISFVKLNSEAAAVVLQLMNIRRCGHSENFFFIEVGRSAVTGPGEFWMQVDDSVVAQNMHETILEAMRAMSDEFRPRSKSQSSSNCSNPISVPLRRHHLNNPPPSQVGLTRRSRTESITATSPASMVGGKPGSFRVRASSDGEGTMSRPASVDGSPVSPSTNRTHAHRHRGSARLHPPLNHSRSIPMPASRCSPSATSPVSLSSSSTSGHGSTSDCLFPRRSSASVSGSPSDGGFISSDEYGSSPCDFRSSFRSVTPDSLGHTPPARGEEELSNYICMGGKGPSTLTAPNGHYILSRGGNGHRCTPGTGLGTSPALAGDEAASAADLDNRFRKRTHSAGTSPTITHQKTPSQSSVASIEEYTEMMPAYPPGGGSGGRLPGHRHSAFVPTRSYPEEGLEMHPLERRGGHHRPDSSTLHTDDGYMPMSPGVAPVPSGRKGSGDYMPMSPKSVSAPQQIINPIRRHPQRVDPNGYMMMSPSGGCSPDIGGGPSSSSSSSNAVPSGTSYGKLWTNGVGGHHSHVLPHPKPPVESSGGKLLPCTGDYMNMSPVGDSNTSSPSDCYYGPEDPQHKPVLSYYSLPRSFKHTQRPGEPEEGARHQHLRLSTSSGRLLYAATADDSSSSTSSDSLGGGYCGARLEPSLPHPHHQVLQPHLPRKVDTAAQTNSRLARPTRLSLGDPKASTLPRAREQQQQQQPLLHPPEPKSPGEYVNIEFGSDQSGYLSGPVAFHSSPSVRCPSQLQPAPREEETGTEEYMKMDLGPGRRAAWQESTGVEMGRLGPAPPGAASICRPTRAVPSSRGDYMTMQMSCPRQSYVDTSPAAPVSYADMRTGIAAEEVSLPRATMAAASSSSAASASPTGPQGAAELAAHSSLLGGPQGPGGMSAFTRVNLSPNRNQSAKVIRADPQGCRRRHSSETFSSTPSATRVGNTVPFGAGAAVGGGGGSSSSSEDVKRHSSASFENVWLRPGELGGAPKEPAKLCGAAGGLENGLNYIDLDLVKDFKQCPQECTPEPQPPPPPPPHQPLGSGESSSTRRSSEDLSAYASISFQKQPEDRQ
# Method: FIGS. 3(A-M) illustrate: (A, B) Mapping peptides (P3, SEQ ID NO: 1; P4 SEQ ID NO: 2; P5, SEQ ID NO: 3; P6, SEQ ID NO: 4) derived from mutant p110α that inhibit interaction between IRS1 and p110α E545K. The indicated peptides were added into cell lysates made from the p110α E545K 3×FLAG KI cells. Cell lysates were immunoprecipitated with beads conjugated with anti-FLAG antibodies and then blotted with anti-IRS1 antibodies. (C) Immunoblots of cell lysates made from the p110α E545K 3×FLAG KI cells. Cell lysates were immunoprecipitated with beads conjugated with anti-FLAG antibodies and then blotted with the indicated antibodies. (D) Immunoblots of cell lysate of Myc-tagged IRS1 plasmid, which co-transfected an ABD domain deletion construct of the FLAG-tagged p110α E545K mutant (ΔABD), incubated with the indicated amount of stapled p110α mutant peptides, and then immunoprecipitated with anti-FLAG antibodies and blotted with the indicated antibodies. (J, K) Immunoblot and graph of purified recombinant p110α E545K mutant proteins mixed with the indicated components and quantified using an in vitro lipid kinase assay. (L, M) Immunoblots of the indicated cell lines serum-starved, stimulated with 1 μg/ml insulin for 30 min, and then treated with or without the indicated peptides. Cell lysates were blotted with the indicated antibodies. All error bars show mean±SEM. *p<0.05, **p<0.001, t test.
# (§1) For Co-immunoprecipitation (Co-IP), cells were harvested, washed with PBS, and then lysed in IP buffer (50 mMTris [pH 7.4], 150 mMNaCl, 5 mMEDTA [pH 8.0], 0.5% NP40, 1 mM PMSF, complete Protease Inhibitor Cocktail tablet [Roche]; supplemented with phosphatase inhibitors [1 mM Na3VO4, 20 mM NaF, 0.1 mM b-glycerophosphate, 20 mM sodium pyrophosphate] when necessary). For immunoblotting (IB) of phospho-specific proteins, unless stated otherwise, cells were lysed in urea buffer (100 mM NaH2PO4, 10 mM Tris-HCl, 8 M Urea, 1 mM Na3VO4, 20 mM NaF, 0.1 mM β-glycerophosphate, 20 mM sodium pyrophosphate, supplemented with complete Protease Inhibitor Cocktail tablet [Roche], pH 8.0). Lysates were then cleared by centrifugation (14,000 rpm, 10 min) and protein concentration in supernatants was determined with a BCA protein assay kit (Pierce, Rockford, Ill.). Equal amounts of total protein were used for IP or IB.
# For in vitro peptide competition assay, the p110α mutant-FLAG-tagged cells were grown to 90% confluency, serum-starved overnight, and lysed as described previously. Peptides were then added to the cell lysates, incubated for 30 min at 4° C. and followed by immunoprecipitation assay.
# [2] = target: T2, IRS1-p110α E545K interaction in DLD1 cells (Homo sapiens, UniProt P35568); experiment: Co-IP after peptide added to culture medium of p110α E545K 3×FLAG KI DLD1 cells; format: cell-based; parameters: dose or concentration left out as unconfirmed; conditions: peptide added to cell culture medium for 16 hr
# T2 construct: endogenous in cells; host or cells: DLD1 p110α E545K 3×FLAG knock-in cells (rAAV gene targeting of the endogenous allele)
# T2 sequence (P35568 1-1242): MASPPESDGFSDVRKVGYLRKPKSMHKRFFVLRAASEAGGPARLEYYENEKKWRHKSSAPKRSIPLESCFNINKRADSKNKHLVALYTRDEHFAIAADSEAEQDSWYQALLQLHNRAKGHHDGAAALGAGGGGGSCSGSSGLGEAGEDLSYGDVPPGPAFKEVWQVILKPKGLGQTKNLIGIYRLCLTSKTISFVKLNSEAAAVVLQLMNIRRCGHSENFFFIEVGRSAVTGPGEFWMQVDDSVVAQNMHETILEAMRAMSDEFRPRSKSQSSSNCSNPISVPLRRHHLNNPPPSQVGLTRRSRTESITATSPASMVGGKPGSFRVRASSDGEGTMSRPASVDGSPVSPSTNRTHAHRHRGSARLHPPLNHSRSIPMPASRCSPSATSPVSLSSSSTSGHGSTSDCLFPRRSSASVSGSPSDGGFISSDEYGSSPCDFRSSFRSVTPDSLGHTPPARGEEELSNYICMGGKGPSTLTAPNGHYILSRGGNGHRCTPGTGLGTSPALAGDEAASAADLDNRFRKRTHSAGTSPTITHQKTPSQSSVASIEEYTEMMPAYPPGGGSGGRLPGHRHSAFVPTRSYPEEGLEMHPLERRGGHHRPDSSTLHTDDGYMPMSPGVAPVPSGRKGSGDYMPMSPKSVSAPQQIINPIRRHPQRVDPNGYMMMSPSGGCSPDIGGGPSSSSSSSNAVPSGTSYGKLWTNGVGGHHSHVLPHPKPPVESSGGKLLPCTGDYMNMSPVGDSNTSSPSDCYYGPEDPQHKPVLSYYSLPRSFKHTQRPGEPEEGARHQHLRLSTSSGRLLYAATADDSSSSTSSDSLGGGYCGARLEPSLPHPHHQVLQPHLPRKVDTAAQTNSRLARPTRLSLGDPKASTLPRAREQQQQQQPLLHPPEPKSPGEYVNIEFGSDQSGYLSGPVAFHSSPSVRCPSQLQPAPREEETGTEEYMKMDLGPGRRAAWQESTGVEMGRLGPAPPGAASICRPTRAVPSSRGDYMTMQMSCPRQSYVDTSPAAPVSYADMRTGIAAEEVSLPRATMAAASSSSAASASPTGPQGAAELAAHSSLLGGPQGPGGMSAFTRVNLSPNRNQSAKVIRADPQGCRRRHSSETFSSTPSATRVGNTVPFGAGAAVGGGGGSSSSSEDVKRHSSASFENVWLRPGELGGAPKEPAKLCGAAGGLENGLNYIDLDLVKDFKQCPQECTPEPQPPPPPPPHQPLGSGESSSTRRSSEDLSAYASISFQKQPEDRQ
# Method: FIG. 4(A-F) illustrate: (A) Schematic diagram of linear and stapled WT and mutant peptides derived from p110α (SEQ ID NOs: 5, 6, 7 and 8). (B) Immunoblots of cell lysates immunoprecipitated with beads conjugated with anti-FLAG antibodies and then blotted with the indicated antibodies. Linear or stapled WT and mutant peptide were added into culture medium of the p110α E545K 3×FLAG KI cells for 16 hr. (C) Immunoblots of cell lysates immunoprecipitated with anti-p110α antibodies and then blotted with the indicated antibodies. Vaco481 CRC cells were treated with the stapled mutant peptides at the indicated concentration. (D) Immunoblots of cell lysates blotted with the indicated antibodies. The indicated cell lines were treated with the stapled mutant peptide. (E) Immunoblots of cell lysates blotted with the indicated antibodies. The indicated cancer cell lines were treated or untreated with stapled WT or mutant peptide at […] for 2 hr. (F) Immunoblots of cell lysates were blotted with the indicated antibodies. The indicated cancer cell lines were treated with or without […] of stapled mutant peptide for 2 hr.
# as §1
# [3] = target: insulin receptor substrate 1 (IRS1) (UniProt P35568)
# [4] = target: T3, wild-type p110α (endogenous, untagged) (UniProt P42336 1-1068); experiment: pull-down with His-tagged IRS1 fragment from WT-only DLD1 lysates (FIG. 1B)
# T3 construct: also called WT p110α
# Excerpt: The altered interaction properties of the mutant forms of p110α prompted us to map the minimal essential regions of IRS1 required for its interaction with p110α E545K mutant protein. For this study, we made a series of 6×His-tagged IRS1 truncation constructs (FIGS. 1A and 1C). The His-tagged IRS1 proteins were first expressed in Eschericia coli and purified with Ni-NTA beads. Then the purified proteins were used to pull down p110α from DLD1 cells expressing either the WT p110α only or the p110α E545K mutant only. With these proteins, we first mapped the mutant p110α interaction domain to the middle part of IRS1 (amino acid [AA] 585-962) (FIG. 1B). This fragment contains three YxxM motifs that mediate the pY dependent IRS1-p85 protein interaction. We thus constructed an unphosphorylatable IRS1Y3F mutant fragment (FIG. 1A). […] In contrast, neither of the single region deletions could interrupt the IRS1 mutant p110α interaction. […] Finally, similar results were also observed when the IRS1D was expressed in p110α E545K 3×FLAG KI DLD1 cells.
# T3 sequence (P42336 whole entry, the tested form may be a part): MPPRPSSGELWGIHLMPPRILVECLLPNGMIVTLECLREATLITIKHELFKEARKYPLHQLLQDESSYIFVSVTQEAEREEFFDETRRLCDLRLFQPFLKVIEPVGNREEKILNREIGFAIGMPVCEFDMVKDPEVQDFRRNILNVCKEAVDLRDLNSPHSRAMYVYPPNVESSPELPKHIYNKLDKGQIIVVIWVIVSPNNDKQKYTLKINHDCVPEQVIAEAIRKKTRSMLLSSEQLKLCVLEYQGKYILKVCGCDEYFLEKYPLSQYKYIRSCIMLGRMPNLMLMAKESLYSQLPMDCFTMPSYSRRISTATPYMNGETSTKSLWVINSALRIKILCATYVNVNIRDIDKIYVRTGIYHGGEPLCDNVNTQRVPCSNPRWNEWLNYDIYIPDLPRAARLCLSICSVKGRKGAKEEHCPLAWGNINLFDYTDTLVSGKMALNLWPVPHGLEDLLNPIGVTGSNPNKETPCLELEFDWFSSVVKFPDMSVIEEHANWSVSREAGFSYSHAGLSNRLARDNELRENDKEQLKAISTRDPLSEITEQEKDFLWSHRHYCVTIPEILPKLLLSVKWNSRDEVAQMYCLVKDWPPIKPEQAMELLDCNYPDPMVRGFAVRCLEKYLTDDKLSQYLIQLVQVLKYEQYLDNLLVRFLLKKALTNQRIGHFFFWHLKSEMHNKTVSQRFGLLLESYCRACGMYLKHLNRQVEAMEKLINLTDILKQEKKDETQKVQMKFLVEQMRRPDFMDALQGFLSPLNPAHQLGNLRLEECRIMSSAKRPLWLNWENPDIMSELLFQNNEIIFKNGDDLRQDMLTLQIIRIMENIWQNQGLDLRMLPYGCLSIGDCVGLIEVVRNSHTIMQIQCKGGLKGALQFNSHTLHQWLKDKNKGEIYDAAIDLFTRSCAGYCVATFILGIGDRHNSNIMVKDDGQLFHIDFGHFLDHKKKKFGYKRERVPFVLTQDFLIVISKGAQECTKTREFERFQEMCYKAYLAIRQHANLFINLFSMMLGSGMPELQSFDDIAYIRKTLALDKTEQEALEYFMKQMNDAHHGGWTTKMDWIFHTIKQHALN
molecule,measurement,setting,value
18-AA mutant peptide: linear 18-AA E545K mutant peptide corresponding to the C-terminal α-helical motif of p110α helical domain (SEITKQEKDFLWSHRHYC-OH; listed as Homo sapiens),inhibition of the interaction between p110α E545K and IRS1,[1],moderate inhibition
same,inhibition of the interaction between p110α E545K and IRS1,[1]; listed as peptide corresponding to the C-terminal α-helical motif,inhibited
same,disruption of IRS1-p110α E545K interaction in DLD1 cells,[2],neither the linear mutant peptide nor the stapled WT peptide affected the interaction
30-AA mutant peptide: linear 30-AA p110α E545K mutant peptide forming two α-helix domains flanking the mutation site (EQLKAISTRDPLSEITKQEKDFLWSHRHYC-OH; listed as Homo sapiens),inhibition of the interaction between p110α E545K and IRS1,[1],inhibited
N-terminal 21-AA mutant peptide: linear N-terminal 21-AA mutant peptide corresponding to the N-terminal α-helical motif (EQLKAISTRDPLSEITKQEKD-OH; listed as Homo sapiens),inhibition of the interaction between p110α E545K and IRS1,[1],no effect
WT peptide: linear 30-AA wild-type p110α counterpart of the 30-AA E545K mutant peptide (EQLKAISTRDPLSEITEQEKDFLWSHRHYC-OH; listed as Homo sapiens) [reference compound],inhibition of the interaction between p110α E545K and IRS1,[1],failed to cause any inhibition
"p110α E545K mutant (endogenous, untagged)",AKT phosphorylation,[3],"the stapled mutant peptide, but not the WT counterpart, reduced AKT phosphorylation in mutant-only DLD1 cells"
same,AKT phosphorylation at both T308 and S473 residues,[3],"treatment of cancer cell lines (DLD1, H460, and MDA-MB361) harboring p110α E545K ... with the stapled mutant peptide resulted in reduced AKT phosphorylation"
B1,binding result,[4],no binding
